Source: US20200317768A1 (published 2020)

T1: cynomolgus monkey FcγRIIa2 extracellular domain, C-terminal His-tag (cynomolgus monkey)
T1 construct: also called cyno FcγRIIa2; cynoFcgRIIa2; not shown: His-tag added to C-terminus
T1 chain: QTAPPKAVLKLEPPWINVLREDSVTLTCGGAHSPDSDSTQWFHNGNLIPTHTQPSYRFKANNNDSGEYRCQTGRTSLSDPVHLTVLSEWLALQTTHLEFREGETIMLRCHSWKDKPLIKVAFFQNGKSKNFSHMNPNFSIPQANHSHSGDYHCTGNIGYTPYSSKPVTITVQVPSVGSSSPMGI

T2: cynomolgus monkey FcγRIIa3 extracellular domain, C-terminal His-tag (cynomolgus monkey)
T2 construct: also called cyno FcγRIIa3; cynoFcgRIIa3; not shown: His-tag added to C-terminus
T2 chain: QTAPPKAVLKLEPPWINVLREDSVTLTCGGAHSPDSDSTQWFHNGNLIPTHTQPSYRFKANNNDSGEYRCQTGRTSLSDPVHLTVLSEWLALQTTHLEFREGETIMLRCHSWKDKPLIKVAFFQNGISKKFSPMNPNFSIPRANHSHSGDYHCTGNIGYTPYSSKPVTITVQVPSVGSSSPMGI

T3: cynomolgus monkey FcγRIIb extracellular domain, C-terminal His-tag (cynomolgus monkey)
T3 construct: also called cyno FcγRIIb; cynoFcγRIIb; not shown: His-tag added to C-terminus
T3 chain: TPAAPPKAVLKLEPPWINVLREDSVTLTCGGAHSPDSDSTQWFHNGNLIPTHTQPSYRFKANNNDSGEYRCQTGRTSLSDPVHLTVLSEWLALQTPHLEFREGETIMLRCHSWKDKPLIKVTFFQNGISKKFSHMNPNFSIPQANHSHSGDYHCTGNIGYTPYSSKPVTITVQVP

T4: human FcγRIIaH extracellular domain, C-terminal His-tag (human, UniProt P12318 34-217)
T4 construct: also called human FcγRIIa (type H); FcgRIIaH; not shown: His-tag added to C-terminus
T4 sequence: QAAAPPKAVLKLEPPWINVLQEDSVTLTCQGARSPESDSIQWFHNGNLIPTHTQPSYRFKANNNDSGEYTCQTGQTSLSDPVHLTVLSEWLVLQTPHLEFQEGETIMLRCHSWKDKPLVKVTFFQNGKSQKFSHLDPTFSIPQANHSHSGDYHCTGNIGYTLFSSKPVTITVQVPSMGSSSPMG

T5: human FcγRIIb extracellular domain, C-terminal His-tag (human, UniProt P31994 43-217)
T5 construct: also called humanFcgRIIb; not shown: His-tag added to C-terminus
T5 sequence: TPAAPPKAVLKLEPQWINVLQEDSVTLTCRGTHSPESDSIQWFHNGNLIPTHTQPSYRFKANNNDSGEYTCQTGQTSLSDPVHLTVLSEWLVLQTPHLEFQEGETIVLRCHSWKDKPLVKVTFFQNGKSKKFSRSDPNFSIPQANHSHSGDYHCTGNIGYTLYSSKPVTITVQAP


Tests used:
Assay in all cases: SPR (BIACORE); KD of SG1 / KD of variant
[1] = target: T1, cynomolgus monkey FcγRIIa2 …
[2] = target: T2, cynomolgus monkey FcγRIIa3 …
[3] = target: T3, cynomolgus monkey FcγRIIb extracellular …
[4] = target: T6, cynomolgus monkey FcγRIIIaS extracellular domain, C-terminal His-tag (cynomolgus monkey, UniProt A3RFZ7 21-206 (rhesus entry))
T6 construct: also called cyno FcγRIIIaS; cynoFcγRIIIaS; not shown: His-tag added to C-terminus
T6 sequence (A3RFZ7 21-206): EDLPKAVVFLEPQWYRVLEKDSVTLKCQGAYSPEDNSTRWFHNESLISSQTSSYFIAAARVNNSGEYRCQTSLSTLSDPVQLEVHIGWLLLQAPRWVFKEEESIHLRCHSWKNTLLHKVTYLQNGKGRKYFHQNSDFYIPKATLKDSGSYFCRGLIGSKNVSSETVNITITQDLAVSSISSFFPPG

[5] = target: T4, human FcγRIIaH extracellular domain, …
[6] = target: T5, human FcγRIIb extracellular domain, …
[7] = target: T7, human FcγRIIIaV extracellular domain, C-terminal His-tag (human, UniProt P08637 17-208)
T7 construct: also called FcgRIIIaV; not shown: His-tag added to C-terminus
T7 sequence (P08637 17-208 F176V): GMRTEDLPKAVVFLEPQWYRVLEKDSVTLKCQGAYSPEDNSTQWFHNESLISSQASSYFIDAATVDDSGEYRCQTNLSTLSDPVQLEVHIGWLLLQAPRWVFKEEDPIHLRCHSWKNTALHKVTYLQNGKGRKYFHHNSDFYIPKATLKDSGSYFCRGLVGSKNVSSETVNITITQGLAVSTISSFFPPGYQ

| Binder | KD fold (SG1 = 1) [1] | KD fold (SG1 = 1) [2] | KD fold (SG1 = 1) [3] | KD fold (SG1 = 1) [4] | KD fold (SG1 = 1) [5] | KD fold (SG1 = 1) [6] | KD fold (SG1 = 1) [7] |
| --- | --- | --- | --- | --- | --- | --- | --- |
| MS_M103205H795-SG1/M103202L889-SK1 (antibody, human IgG1, kappa, Parent antibody with SG1 human heavy chain constant region; also called MS1032LO06-SG1) heavy: not shown light: DIVMTQSPATLSLSPGERATLSCTSSQSVYHANWLSWFQQKPGQPPKLLIYWASTLAYGVPSRFSGSGSGTDFTLTISSLQPEDAATYYCAGGYGGGRYAFGQGTKVEIKRTVAAPSVFIFPPSDEQLKSGTASVVCLLNNFYPREAKVQWKVDNALQSGNSQESVTEQDSKDSTYSLSSTLTLSKADYEKHKVYACEVTHQGLSSPVTKSFNRGEC | 1 fold | 1 fold | 1 fold | 1 fold | 1 fold | 1 fold | 1 fold |
| M103205H795-MY205 / M103202L889-SK1 (antibody, human IgG1, kappa, CH with G236N/H268D/Q295L/A330K against SG1 (EU numbering); also called MS1032LO06-MY205) heavy: QVTLKESGPVLVKPTETLTLTCTVSGIDLSHDDISWVRQAPGKGLEWVGIISYAGSTYYASWAKGRLTISKDTSKNQVVLTMTNMDPVDTATYYCARGVPAYSHGGDLWGQGTLVTVSSASTKGPSVFPLAPSSKSTSGGTAALGCLVKDYFPEPVTVSWNSGALTSGVHTFPAVLQSSGLYSLSSVVTVPSSSLGTQTYICNVNHKPSNTKVDKKVEPKSCDKTHTCPPCPAPELLNGPSVFLFPPKPKDTLMISRTPEVTCVVVDVSDEDPEVKFNWYVDGVEVHNAKTKPREELYNSTYRVVSVLTVLHQDWLNGKEYKCKVSNKALPKPIEKTISKAKGQPREPQVYTLPPSREEMTKNQVSLTCLVKGFYPSDIAVEWESNGQPENNYKTTPPVLDSDGSFFLYSKLTVDKSRWQQGNVFSCSVMHEALHNHYTQKSLSLSP light: DIVMTQSPATLSLSPGERATLSCTSSQSVYHANWLSWFQQKPGQPPKLLIYWASTLAYGVPSRFSGSGSGTDFTLTISSLQPEDAATYYCAGGYGGGRYAFGQGTKVEIKRTVAAPSVFIFPPSDEQLKSGTASVVCLLNNFYPREAKVQWKVDNALQSGNSQESVTEQDSKDSTYSLSSTLTLSKADYEKHKVYACEVTHQGLSSPVTKSFNRGEC | 4.6 fold | 5.7 fold | 7.2 fold | 0.06 fold | 1.5 fold | 8.2 fold | 0.06 fold |
| M103205H795-MY344 / M103202L889-SK1 (antibody, human IgG1, kappa, CH with G236N/H268D/Q295L/Q311R/A330K/D413K against SG1 (EU numbering); also called MS1032LO06-MY344) heavy: QVTLKESGPVLVKPTETLTLTCTVSGIDLSHDDISWVRQAPGKGLEWVGIISYAGSTYYASWAKGRLTISKDTSKNQVVLTMTNMDPVDTATYYCARGVPAYSHGGDLWGQGTLVTVSSASTKGPSVFPLAPSSKSTSGGTAALGCLVKDYFPEPVTVSWNSGALTSGVHTFPAVLQSSGLYSLSSVVTVPSSSLGTQTYICNVNHKPSNTKVDKKVEPKSCDKTHTCPPCPAPELLNGPSVFLFPPKPKDTLMISRTPEVTCVVVDVSDEDPEVKFNWYVDGVEVHNAKTKPREELYNSTYRVVSVLTVLHRDWLNGKEYKCKVSNKALPKPIEKTISKAKGQPREPQVYTLPPSREEMTKNQVSLTCLVKGFYPSDIAVEWESNGQPENNYKTTPPVLDSDGSFFLYSKLTVKKSRWQQGNVFSCSVMHEALHNHYTQKSLSLSP light: DIVMTQSPATLSLSPGERATLSCTSSQSVYHANWLSWFQQKPGQPPKLLIYWASTLAYGVPSRFSGSGSGTDFTLTISSLQPEDAATYYCAGGYGGGRYAFGQGTKVEIKRTVAAPSVFIFPPSDEQLKSGTASVVCLLNNFYPREAKVQWKVDNALQSGNSQESVTEQDSKDSTYSLSSTLTLSKADYEKHKVYACEVTHQGLSSPVTKSFNRGEC | 4.6 fold | 7.7 fold | 5.8 fold | 0.07 fold | 1 fold | 6.4 fold | 0.04 fold |

Results, then the binder that gave them:

| KD fold (SG1 = 1) [1] | KD fold (SG1 = 1) [2] | KD fold (SG1 = 1) [3] | KD fold (SG1 = 1) [4] | KD fold (SG1 = 1) [5] | KD fold (SG1 = 1) [6] | KD fold (SG1 = 1) [7] | Binder |
| --- | --- | --- | --- | --- | --- | --- | --- |
| 3 fold | 6.3 fold | 2.8 fold | 0.24 fold | 2.4 fold | 2 fold | 0.16 fold | M103205H795-MY335 / M103202L889-SK1 (antibody, human IgG1, kappa, CH with G236T/H268D/Q311R/A330K/D413K against SG1 (EU numbering); also called MS1032LO06-MY335) heavy: QVTLKESGPVLVKPTETLTLTCTVSGIDLSHDDISWVRQAPGKGLEWVGIISYAGSTYYASWAKGRLTISKDTSKNQVVLTMTNMDPVDTATYYCARGVPAYSHGGDLWGQGTLVTVSSASTKGPSVFPLAPSSKSTSGGTAALGCLVKDYFPEPVTVSWNSGALTSGVHTFPAVLQSSGLYSLSSVVTVPSSSLGTQTYICNVNHKPSNTKVDKKVEPKSCDKTHTCPPCPAPELLTGPSVFLFPPKPKDTLMISRTPEVTCVVVDVSDEDPEVKFNWYVDGVEVHNAKTKPREEQYNSTYRVVSVLTVLHRDWLNGKEYKCKVSNKALPKPIEKTISKAKGQPREPQVYTLPPSREEMTKNQVSLTCLVKGFYPSDIAVEWESNGQPENNYKTTPPVLDSDGSFFLYSKLTVKKSRWQQGNVFSCSVMHEALHNHYTQKSLSLSP light: DIVMTQSPATLSLSPGERATLSCTSSQSVYHANWLSWFQQKPGQPPKLLIYWASTLAYGVPSRFSGSGSGTDFTLTISSLQPEDAATYYCAGGYGGGRYAFGQGTKVEIKRTVAAPSVFIFPPSDEQLKSGTASVVCLLNNFYPREAKVQWKVDNALQSGNSQESVTEQDSKDSTYSLSSTLTLSKADYEKHKVYACEVTHQGLSSPVTKSFNRGEC |
| 3.6 fold | 4.4 fold | 4.2 fold | 0.06 fold | 0.8 fold | 4.2 fold | 0.03 fold | M103205H795-MY201 / M103202L889-SK1 (antibody, human IgG1, kappa, CH with G236N/H268D/A330K against SG1 (EU numbering); also called MS1032LO06-MY201) heavy: QVTLKESGPVLVKPTETLTLTCTVSGIDLSHDDISWVRQAPGKGLEWVGIISYAGSTYYASWAKGRLTISKDTSKNQVVLTMTNMDPVDTATYYCARGVPAYSHGGDLWGQGTLVTVSSASTKGPSVFPLAPSSKSTSGGTAALGCLVKDYFPEPVTVSWNSGALTSGVHTFPAVLQSSGLYSLSSVVTVPSSSLGTQTYICNVNHKPSNTKVDKKVEPKSCDKTHTCPPCPAPELLNGPSVFLFPPKPKDTLMISRTPEVTCVVVDVSDEDPEVKFNWYVDGVEVHNAKTKPREEQYNSTYRVVSVLTVLHQDWLNGKEYKCKVSNKALPKPIEKTISKAKGQPREPQVYTLPPSREEMTKNQVSLTCLVKGFYPSDIAVEWESNGQPENNYKTTPPVLDSDGSFFLYSKLTVDKSRWQQGNVFSCSVMHEALHNHYTQKSLSLSP light: DIVMTQSPATLSLSPGERATLSCTSSQSVYHANWLSWFQQKPGQPPKLLIYWASTLAYGVPSRFSGSGSGTDFTLTISSLQPEDAATYYCAGGYGGGRYAFGQGTKVEIKRTVAAPSVFIFPPSDEQLKSGTASVVCLLNNFYPREAKVQWKVDNALQSGNSQESVTEQDSKDSTYSLSSTLTLSKADYEKHKVYACEVTHQGLSSPVTKSFNRGEC |
| 4.3 fold | 4.7 fold | 5.1 fold | 0.11 fold | 1.4 fold | 9.4 fold | 0.07 fold | M103205H795-MY101 / M103202L889-SK1 (antibody, human IgG1, kappa, CH with G236N/H268E/A330K/P396M against SG1 (EU numbering); also called MS1032LO06-MY101) heavy: QVTLKESGPVLVKPTETLTLTCTVSGIDLSHDDISWVRQAPGKGLEWVGIISYAGSTYYASWAKGRLTISKDTSKNQVVLTMTNMDPVDTATYYCARGVPAYSHGGDLWGQGTLVTVSSASTKGPSVFPLAPSSKSTSGGTAALGCLVKDYFPEPVTVSWNSGALTSGVHTFPAVLQSSGLYSLSSVVTVPSSSLGTQTYICNVNHKPSNTKVDKKVEPKSCDKTHTCPPCPAPELLNGPSVFLFPPKPKDTLMISRTPEVTCVVVDVSEEDPEVKFNWYVDGVEVHNAKTKPREEQYNSTYRVVSVLTVLHQDWLNGKEYKCKVSNKALPKPIEKTISKAKGQPREPQVYTLPPSREEMTKNQVSLTCLVKGFYPSDIAVEWESNGQPENNYKTTPMVLDSDGSFFLYSKLTVDKSRWQQGNVFSCSVMHEALHNHYTQKSLSLSP light: DIVMTQSPATLSLSPGERATLSCTSSQSVYHANWLSWFQQKPGQPPKLLIYWASTLAYGVPSRFSGSGSGTDFTLTISSLQPEDAATYYCAGGYGGGRYAFGQGTKVEIKRTVAAPSVFIFPPSDEQLKSGTASVVCLLNNFYPREAKVQWKVDNALQSGNSQESVTEQDSKDSTYSLSSTLTLSKADYEKHKVYACEVTHQGLSSPVTKSFNRGEC |
